The results in this text go back to article PMC9877840.

The target in test [1] is S309. Nature of the test: SPR.
The target in test [2] is R. shameli ACE2‐mFC (Rhinolophus shameli). Nature of the test: SPR.

What is called pKd is the negative decadic logarithm of the Kd, by convention in mol/L. Low values mean a high Kd, high ones a low Kd.

pKd: −log10 of the molar value.

Turning to “RshSTT182/200 receptor binding domain (RBD) (domain or fragment)”, the pKd in test [1] is 8.43.

In test [2], “SARS‐CoV‐2 RBD (from UniProt P0DTC2 319-541) (domain or fragment)” showed a negative logarithm of the Kd (pKd) of 5.18.
